System: variant Cas12i2 (RNP, exact variant not stated in Examples 1-5)
Test: cell_activity
Conditions: HEK293T RNP 10 uM, 3 days

Sequence: AGAAAUCCGUCUUUCAUUGACGGUAGAUGCUGUCCGAGGCAGU / TAGATGCTGTCCGAGGCAGT / ACTGCCTCGGACAGCATCTA [E2T3 Cas12i2 crRNA ; TTR E2T3 target]
- activity (PAM 5'-TTN (GTTC)): > 80 % indels

Sequence: AGAAAUCCGUCUUUCAUUGACGGGUAUAUCCCUUCUACAAAUU / GTATATCCCTTCTACAAATT / AATTTGTAGAAGGGATATAC [E3T3 Cas12i2 crRNA ; TTR E3T3 target]
- activity (PAM 5'-TTN (CTTT)): > 80 % indels

Sequence: AGAAAUCCGUCUUUCAUUGACGGAGGUCCACUGGAGGAGAAGU / AGGTCCACTGGAGGAGAAGT / ACTTCTCCTCCAGTGGACCT [E4T6 Cas12i2 crRNA ; TTR E4T6 target]
- activity (PAM 5'-TTN (CTTC)): > 80 % indels

Source: patent publication US20220396782
